According to paper PMC6078998:

Experiments:
[1] = biological target: recombinant human HIRA(661–1017) (human) (UniProt P54198); test: AUC; sedimentation velocity, c(S) model in SEDFIT, 141,995×g; buffer with 300 mM NaCl, and also with 150 mM NaCl with consistent values
[2] = biological target: recombinant human HIRA(661–1017) (human) (UniProt P54198); test: AUC; sedimentation equilibrium of the HIRA(661–1017)–CABIN1 FL complex isolated from a size-exclusion peak, slightly lower rotor speeds; 4 °C, 20 mM Tris pH 8.0, 300 mM NaCl, 1 mM TCEP; SEDPHAT ABBB model (A the HIRA trimer, B a CABIN1 monomer), apparent constants

Chain of recombinant human HIRA(661–1017) (human) (P54198 661-1017): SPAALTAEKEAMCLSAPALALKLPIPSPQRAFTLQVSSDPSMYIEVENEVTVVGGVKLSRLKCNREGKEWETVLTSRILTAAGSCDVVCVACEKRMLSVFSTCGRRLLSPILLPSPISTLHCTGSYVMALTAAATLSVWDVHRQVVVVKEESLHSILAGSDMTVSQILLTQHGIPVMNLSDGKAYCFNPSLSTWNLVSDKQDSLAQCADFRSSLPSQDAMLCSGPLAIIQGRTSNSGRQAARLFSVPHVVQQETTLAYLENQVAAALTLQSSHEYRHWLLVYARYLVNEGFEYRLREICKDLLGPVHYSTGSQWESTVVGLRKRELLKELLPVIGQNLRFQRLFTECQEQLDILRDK
Chain of CABIN1 full length (FL), recombinant, Q9Y6J0 1-2220 (natural protein) (Q9Y6J0 whole entry): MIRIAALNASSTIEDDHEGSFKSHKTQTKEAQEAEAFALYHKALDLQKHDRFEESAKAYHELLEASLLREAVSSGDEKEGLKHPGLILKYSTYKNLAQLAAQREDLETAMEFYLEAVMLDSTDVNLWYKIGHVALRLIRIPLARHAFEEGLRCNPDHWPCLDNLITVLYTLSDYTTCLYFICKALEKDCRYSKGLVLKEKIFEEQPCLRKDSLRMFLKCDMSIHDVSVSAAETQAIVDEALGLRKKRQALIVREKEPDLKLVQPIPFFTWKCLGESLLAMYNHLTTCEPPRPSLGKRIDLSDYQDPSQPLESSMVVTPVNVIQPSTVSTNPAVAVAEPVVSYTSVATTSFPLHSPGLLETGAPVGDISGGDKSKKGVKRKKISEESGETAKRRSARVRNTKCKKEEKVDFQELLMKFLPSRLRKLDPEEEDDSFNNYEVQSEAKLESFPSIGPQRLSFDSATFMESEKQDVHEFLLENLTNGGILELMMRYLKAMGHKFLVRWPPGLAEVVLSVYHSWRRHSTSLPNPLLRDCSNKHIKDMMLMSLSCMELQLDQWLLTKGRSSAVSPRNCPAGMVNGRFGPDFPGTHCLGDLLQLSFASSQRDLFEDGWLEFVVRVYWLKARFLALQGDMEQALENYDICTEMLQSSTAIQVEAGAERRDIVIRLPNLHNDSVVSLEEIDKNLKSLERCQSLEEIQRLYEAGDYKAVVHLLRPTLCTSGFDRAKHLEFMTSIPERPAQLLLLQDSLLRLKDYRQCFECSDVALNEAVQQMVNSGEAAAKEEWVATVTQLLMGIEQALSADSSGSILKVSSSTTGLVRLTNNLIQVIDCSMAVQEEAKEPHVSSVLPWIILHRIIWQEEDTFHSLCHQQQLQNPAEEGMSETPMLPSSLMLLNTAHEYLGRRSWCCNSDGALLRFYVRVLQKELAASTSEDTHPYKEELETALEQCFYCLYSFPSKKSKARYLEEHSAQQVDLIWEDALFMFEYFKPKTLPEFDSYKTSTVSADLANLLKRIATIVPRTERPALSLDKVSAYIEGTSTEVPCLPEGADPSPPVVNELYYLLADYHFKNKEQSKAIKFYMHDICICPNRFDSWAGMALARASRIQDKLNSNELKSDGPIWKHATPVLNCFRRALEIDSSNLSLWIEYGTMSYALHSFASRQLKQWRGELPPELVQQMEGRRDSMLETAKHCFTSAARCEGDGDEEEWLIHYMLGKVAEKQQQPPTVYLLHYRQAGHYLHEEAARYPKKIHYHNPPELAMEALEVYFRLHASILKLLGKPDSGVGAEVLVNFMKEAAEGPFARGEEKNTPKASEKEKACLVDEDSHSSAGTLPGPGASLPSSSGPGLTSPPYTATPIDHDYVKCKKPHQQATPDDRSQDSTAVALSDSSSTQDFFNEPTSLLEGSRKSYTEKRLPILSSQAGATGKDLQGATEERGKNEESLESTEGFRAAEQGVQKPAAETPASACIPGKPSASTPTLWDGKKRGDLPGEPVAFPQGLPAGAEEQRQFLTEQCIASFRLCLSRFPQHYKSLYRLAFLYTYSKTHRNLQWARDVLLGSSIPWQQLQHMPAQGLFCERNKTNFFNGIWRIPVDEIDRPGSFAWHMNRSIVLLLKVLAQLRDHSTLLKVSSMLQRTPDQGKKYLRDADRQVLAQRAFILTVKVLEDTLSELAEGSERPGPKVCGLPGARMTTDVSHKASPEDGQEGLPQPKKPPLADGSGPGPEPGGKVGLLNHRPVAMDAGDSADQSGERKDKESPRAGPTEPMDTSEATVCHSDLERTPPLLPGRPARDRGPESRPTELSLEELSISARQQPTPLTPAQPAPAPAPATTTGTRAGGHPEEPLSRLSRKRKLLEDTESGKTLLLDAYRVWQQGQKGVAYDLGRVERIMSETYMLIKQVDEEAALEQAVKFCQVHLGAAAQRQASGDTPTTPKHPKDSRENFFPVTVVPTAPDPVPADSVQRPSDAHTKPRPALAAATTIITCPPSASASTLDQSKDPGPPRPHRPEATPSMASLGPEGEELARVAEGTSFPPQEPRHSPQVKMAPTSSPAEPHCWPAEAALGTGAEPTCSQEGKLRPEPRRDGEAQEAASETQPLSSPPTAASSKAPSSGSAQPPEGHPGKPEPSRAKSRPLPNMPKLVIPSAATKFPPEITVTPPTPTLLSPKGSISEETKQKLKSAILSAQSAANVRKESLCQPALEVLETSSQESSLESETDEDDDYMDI

## CABIN1 full length (FL), recombinant, Q9Y6J0 1-2220 (natural protein)
[1]
  stoichiometry N (CABIN1 per HIRA trimer): 2
[2]
  Kd, third binding event: 10 µM
  apparent Kd, first two binding events: < 0.001 µM
  stoichiometry N (CABIN1 per HIRA trimer): 2
